Test results: PMC9482650, “Quantitative fragmentomics allow affinity mapping of interactomes” (Nature Communications, 2022)

T1: PDZD11, Q5EBL8
T1 sequence (Q5EBL8 42-139, limits assumed, looked up): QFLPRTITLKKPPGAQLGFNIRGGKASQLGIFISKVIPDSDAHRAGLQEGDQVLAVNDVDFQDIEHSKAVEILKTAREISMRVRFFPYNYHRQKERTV

T2: MPP5, Q8N3R9
T2 sequence (Q8N3R9 251-346, limits assumed, looked up): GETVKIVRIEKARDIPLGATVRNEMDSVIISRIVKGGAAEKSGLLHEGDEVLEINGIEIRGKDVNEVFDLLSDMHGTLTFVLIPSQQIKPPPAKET

T3: PTPN13_4, Q12923
T3 sequence (Q12923 1783-1878, limits assumed, looked up): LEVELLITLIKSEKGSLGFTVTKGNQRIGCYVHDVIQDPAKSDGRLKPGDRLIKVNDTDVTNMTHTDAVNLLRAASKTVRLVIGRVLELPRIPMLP

T4: MPDZ_2, O75970
T4 sequence (O75970 252-347, limits assumed, looked up): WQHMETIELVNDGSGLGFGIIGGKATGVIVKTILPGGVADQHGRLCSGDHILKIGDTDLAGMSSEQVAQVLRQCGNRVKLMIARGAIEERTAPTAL

T5: SHROOM4, Q9ULL8
T5 sequence (Q9ULL8 5-102, limits assumed, looked up): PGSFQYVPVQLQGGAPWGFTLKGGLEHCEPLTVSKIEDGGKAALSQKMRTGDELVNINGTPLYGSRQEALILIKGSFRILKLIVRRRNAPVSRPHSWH

T6: CNKSR1, Q969H4
T6 sequence (Q969H4 191-295, limits assumed, looked up): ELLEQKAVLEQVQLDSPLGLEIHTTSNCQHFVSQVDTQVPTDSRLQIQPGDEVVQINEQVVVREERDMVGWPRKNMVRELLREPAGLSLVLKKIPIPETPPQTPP

T7: MLLT4, P55196
T7 sequence (P55196 1002-1103, limits assumed, looked up): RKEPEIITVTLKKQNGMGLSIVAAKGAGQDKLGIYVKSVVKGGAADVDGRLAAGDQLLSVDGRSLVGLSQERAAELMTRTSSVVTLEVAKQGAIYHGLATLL

T8: USH1C_1, Q9Y6N9
T8 sequence (Q9Y6N9 82-179, limits assumed, looked up): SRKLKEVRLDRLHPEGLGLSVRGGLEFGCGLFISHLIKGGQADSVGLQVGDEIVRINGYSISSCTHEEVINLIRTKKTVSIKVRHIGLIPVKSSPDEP

T9: MPP1, Q00013
T9 sequence (Q00013 66-162, limits assumed, looked up): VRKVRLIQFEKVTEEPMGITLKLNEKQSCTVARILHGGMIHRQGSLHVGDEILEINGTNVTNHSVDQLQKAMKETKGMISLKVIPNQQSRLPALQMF

T10: PDZD7_2, Q9H5P4
T10 sequence (Q9H5P4 205-303, limits assumed, looked up): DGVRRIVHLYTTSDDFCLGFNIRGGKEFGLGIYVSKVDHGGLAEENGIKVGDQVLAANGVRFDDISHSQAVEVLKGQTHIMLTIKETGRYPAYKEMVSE

T11: NHERF3_1, Q5T2W1
T11 sequence (Q5T2W1 4-100, limits assumed, looked up): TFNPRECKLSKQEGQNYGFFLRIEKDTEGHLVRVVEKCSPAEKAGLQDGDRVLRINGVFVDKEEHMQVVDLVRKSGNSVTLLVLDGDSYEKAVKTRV

T12: SYNJ2BP, P57105
T12 sequence (P57105 8-110, limits assumed, looked up): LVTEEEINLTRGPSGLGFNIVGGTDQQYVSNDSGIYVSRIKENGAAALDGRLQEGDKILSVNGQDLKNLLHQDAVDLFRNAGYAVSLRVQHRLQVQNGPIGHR

T13: RGS12, O14924
T13 sequence (O14924 17-108, limits assumed, looked up): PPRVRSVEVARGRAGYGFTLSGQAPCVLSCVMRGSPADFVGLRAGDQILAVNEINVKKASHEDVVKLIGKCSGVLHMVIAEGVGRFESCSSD

T14: MPDZ_7, O75970
T14 sequence (O75970 1146-1253, limits assumed, looked up): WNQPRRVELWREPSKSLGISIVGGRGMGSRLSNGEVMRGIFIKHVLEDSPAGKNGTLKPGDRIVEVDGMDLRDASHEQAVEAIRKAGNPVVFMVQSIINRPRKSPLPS

T15: SHROOM2, Q13796
T15 sequence (Q13796 21-118, limits assumed, looked up): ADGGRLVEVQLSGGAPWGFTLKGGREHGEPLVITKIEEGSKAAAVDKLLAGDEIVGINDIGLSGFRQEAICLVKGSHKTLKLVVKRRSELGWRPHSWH

B1: NET1, Q7Z628 (peptide)
chain: SGGKRKETLV
B2: RASSF6, Q6ZTQ3 (peptide)
chain: KLVIKTETTV
B3: SLC15A5, A6NIM6 (peptide)
chain: SSIDLWETAL
B4: HPV33-E6, P06427 (peptide)
chain: SRSRRRETAL
B5: FZD7, O75084 (peptide)
chain: SHSSKGETAV
B6: HPV82-E6, Q9IR59 (peptide)
chain: PPRQRSETQV

target: T1, PDZD11, Q5EBL8; test: holdup assay; parameters: key: below the threshold = too weak to quantify, mostly under pKd 3.1 to 4; details: plain residues with an end cap or a label only (N-terminal biotin on a linker: ttds)

Binder	pKd
B1	below the threshold
B2	below the threshold
B3	below the threshold
B4	below the threshold
B5	below the threshold
B6	below the threshold

target: T2, MPP5, Q8N3R9; test: holdup assay; parameters: key: below the threshold = too weak to quantify, mostly under pKd 3.1 to 4; details: plain residues with an end cap or a label only (N-terminal biotin on a linker: ttds)

Binder	pKd
B1	below the threshold
B2	below the threshold
B3	below the threshold
B4	below the threshold
B5	below the threshold
B6	below the threshold

target: T3, PTPN13_4, Q12923; test: holdup assay; parameters: key: below the threshold = too weak to quantify, mostly under pKd 3.1 to 4; details: plain residues with an end cap or a label only (N-terminal biotin on a linker: ttds)

Binder	pKd
B1	below the threshold
B2	below the threshold
B3	below the threshold
B4	below the threshold
B5	below the threshold
B6	below the threshold

target: T4, MPDZ_2, O75970; test: holdup assay; parameters: key: below the threshold = too weak to quantify, mostly under pKd 3.1 to 4; details: plain residues with an end cap or a label only (N-terminal biotin on a linker: ttds)

Binder	pKd
B1	3.75
B2	below the threshold
B3	below the threshold
B4	below the threshold
B5	below the threshold
B6	below the threshold

target: T5, SHROOM4, Q9ULL8; test: holdup assay; parameters: key: below the threshold = too weak to quantify, mostly under pKd 3.1 to 4; details: plain residues with an end cap or a label only (N-terminal biotin on a linker: ttds)

Binder	pKd
B1	below the threshold
B2	below the threshold
B3	below the threshold
B4	below the threshold
B5	below the threshold
B6	below the threshold

target: T6, CNKSR1, Q969H4; test: holdup assay; parameters: key: below the threshold = too weak to quantify, mostly under pKd 3.1 to 4; details: plain residues with an end cap or a label only (N-terminal biotin on a linker: ttds)

Binder	pKd
B2	below the threshold
B3	below the threshold
B4	below the threshold
B5	below the threshold
B6	below the threshold

target: T7, MLLT4, P55196; test: holdup assay; parameters: key: below the threshold = too weak to quantify, mostly under pKd 3.1 to 4; details: plain residues with an end cap or a label only (N-terminal biotin on a linker: ttds)

Binder	pKd
B1	4.02
B2	below the threshold
B3	below the threshold
B4	below the threshold
B5	below the threshold
B6	below the threshold

target: LMO7, Q8WWI1; test: holdup assay; parameters: key: below the threshold = too weak to quantify, mostly under pKd 3.1 to 4; details: plain residues with an end cap or a label only (N-terminal biotin on a linker: ttds)
Sequence (Q8WWI1 1037-1138): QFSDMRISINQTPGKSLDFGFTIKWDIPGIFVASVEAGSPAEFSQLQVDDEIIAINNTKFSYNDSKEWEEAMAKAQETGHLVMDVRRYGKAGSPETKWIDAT

Binder	pKd
B2	below the threshold
B3	below the threshold
B4	below the threshold
B5	below the threshold
B6	below the threshold

target: T8, USH1C_1, Q9Y6N9; test: holdup assay; parameters: key: below the threshold = too weak to quantify, mostly under pKd 3.1 to 4; details: plain residues with an end cap or a label only (N-terminal biotin on a linker: ttds)

Binder	pKd
B1	below the threshold
B2	below the threshold
B3	4.64
B4	below the threshold
B5	below the threshold
B6	below the threshold

target: PREX1_1, Q8TCU6; test: holdup assay; parameters: key: below the threshold = too weak to quantify, mostly under pKd 3.1 to 4; details: plain residues with an end cap or a label only (N-terminal biotin on a linker: ttds)
Sequence (Q8TCU6 608-718): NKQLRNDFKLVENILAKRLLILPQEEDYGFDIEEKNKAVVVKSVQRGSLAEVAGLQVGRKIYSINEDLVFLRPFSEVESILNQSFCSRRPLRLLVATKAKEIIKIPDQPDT

Binder	pKd
B1	below the threshold
B2	4.1
B3	below the threshold
B4	below the threshold
B5	below the threshold
B6	below the threshold

target: T9, MPP1, Q00013; test: holdup assay; parameters: key: below the threshold = too weak to quantify, mostly under pKd 3.1 to 4; details: plain residues with an end cap or a label only (N-terminal biotin on a linker: ttds)

Binder	pKd
B1	below the threshold
B2	5.13
B3	below the threshold
B4	4.79
B5	4.85
B6	5.75

target: MAST3, O60307; test: holdup assay; parameters: key: below the threshold = too weak to quantify, mostly under pKd 3.1 to 4; details: plain residues with an end cap or a label only (N-terminal biotin on a linker: ttds)
Sequence (O60307 945-1048): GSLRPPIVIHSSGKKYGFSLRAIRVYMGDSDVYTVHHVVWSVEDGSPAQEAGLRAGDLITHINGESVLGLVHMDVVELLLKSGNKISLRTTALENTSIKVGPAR

Binder	pKd
B1	below the threshold
B2	below the threshold
B3	4.91
B4	below the threshold
B5	below the threshold
B6	below the threshold

target: T10, PDZD7_2, Q9H5P4; test: holdup assay; parameters: key: below the threshold = too weak to quantify, mostly under pKd 3.1 to 4; details: plain residues with an end cap or a label only (N-terminal biotin on a linker: ttds)

Binder	pKd
B1	below the threshold
B2	below the threshold
B3	below the threshold
B4	4.42
B5	below the threshold
B6	below the threshold

target: T11, NHERF3_1, Q5T2W1; test: holdup assay; parameters: key: below the threshold = too weak to quantify, mostly under pKd 3.1 to 4; details: plain residues with an end cap or a label only (N-terminal biotin on a linker: ttds)

Binder	pKd
B1	4.35
B2	below the threshold
B3	6.25
B4	5.49
B5	4.22
B6	4.03

target: T12, SYNJ2BP, P57105; test: holdup assay; parameters: key: below the threshold = too weak to quantify, mostly under pKd 3.1 to 4; details: plain residues with an end cap or a label only (N-terminal biotin on a linker: ttds)

Binder	pKd
B1	5.2
B2	4.97
B3	5.45
B4	5.3
B5	5.08
B6	4.86

target: PARD3B_2, Q8TEW8; test: holdup assay; parameters: key: below the threshold = too weak to quantify, mostly under pKd 3.1 to 4; details: plain residues with an end cap or a label only (N-terminal biotin on a linker: ttds)
Sequence (Q8TEW8 376-471): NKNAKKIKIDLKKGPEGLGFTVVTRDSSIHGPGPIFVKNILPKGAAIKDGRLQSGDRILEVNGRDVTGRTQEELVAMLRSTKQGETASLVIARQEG

Binder	pKd
B1	below the threshold
B2	below the threshold
B3	below the threshold
B4	below the threshold
B5	4.42
B6	below the threshold

target: T13, RGS12, O14924; test: holdup assay; parameters: key: below the threshold = too weak to quantify, mostly under pKd 3.1 to 4; details: plain residues with an end cap or a label only (N-terminal biotin on a linker: ttds)

Binder	pKd
B1	below the threshold
B2	below the threshold
B3	below the threshold
B4	4.5
B5	below the threshold
B6	below the threshold

target: MAGI3_4, Q5TCQ9; test: holdup assay; parameters: key: below the threshold = too weak to quantify, mostly under pKd 3.1 to 4; details: plain residues with an end cap or a label only (N-terminal biotin on a linker: ttds)
Sequence (Q5TCQ9 716-815): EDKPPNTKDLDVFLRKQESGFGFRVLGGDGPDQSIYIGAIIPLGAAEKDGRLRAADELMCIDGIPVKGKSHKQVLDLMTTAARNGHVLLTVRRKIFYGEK

Binder	pKd
B1	below the threshold
B2	below the threshold
B3	below the threshold
B4	below the threshold
B5	below the threshold
B6	below the threshold

target: PDZRN4_2, Q6ZMN7; test: holdup assay; parameters: key: below the threshold = too weak to quantify, mostly under pKd 3.1 to 4; details: plain residues with an end cap or a label only (N-terminal biotin on a linker: ttds)
Sequence (Q6ZMN7 389-498): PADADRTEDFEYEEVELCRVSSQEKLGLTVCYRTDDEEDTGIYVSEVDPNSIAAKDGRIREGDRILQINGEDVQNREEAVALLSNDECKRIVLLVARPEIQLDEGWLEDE

Binder	pKd
B1	below the threshold
B2	below the threshold
B3	below the threshold
B4	below the threshold
B5	below the threshold
B6	below the threshold

target: T14, MPDZ_7, O75970; test: holdup assay; parameters: key: below the threshold = too weak to quantify, mostly under pKd 3.1 to 4; details: plain residues with an end cap or a label only (N-terminal biotin on a linker: ttds)

Binder	pKd
B1	4.35
B2	below the threshold
B3	6.09
B4	below the threshold
B5	below the threshold
B6	below the threshold

target: GRIP2_2, Q9C0E4; test: holdup assay; parameters: key: below the threshold = too weak to quantify, mostly under pKd 3.1 to 4; details: plain residues with an end cap or a label only (N-terminal biotin on a linker: ttds)
Sequence (Q9C0E4 137-245): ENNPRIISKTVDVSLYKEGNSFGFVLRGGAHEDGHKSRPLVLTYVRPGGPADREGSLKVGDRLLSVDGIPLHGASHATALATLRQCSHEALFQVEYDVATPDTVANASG

Binder	pKd
B2	below the threshold
B3	below the threshold
B4	below the threshold
B5	4.49
B6	below the threshold

target: T15, SHROOM2, Q13796; test: holdup assay; parameters: key: below the threshold = too weak to quantify, mostly under pKd 3.1 to 4; details: plain residues with an end cap or a label only (N-terminal biotin on a linker: ttds)

Binder	pKd
B1	below the threshold
B2	below the threshold
B3	5.76
B4	below the threshold
B5	below the threshold
B6	below the threshold
